Reference: patent publication US20220204610A1, “PROTEIN BINDERS FOR IRHOM2” (NEW YORK SOCIETY FOR THE RELIEF OF THE RUPTURED AND …, priority 2019, published 2022)

Legend:
human iRhom1 = experiment: Peptide binding ELISA, binding specificity (Example 10), iRhom1 peptides; details: antibody 3 μg/ml PBS; peptides coated at 10 μg/ml; normalized to IgM isotype control
Procedure: Another series of peptide binding ELISA experiments was conducted to address the specificity of the purified antibody 4H8-E3 of the invention, i.e. to question whether this antibody specifically recognizes peptides, in particular peptide 3, resembling the extracellular juxtamembrane region adjacent to the TMD1 of human iRhom2, or whether the antibody 4H8-E3 of the invention also binds to peptides reflecting the homologous region of the closely related family member human iRhom1.
In brief, on day 1, Nunc black MaxiSorp® 96-well plates (Thermo Fisher Scientific, USA) were coated overnight with 100 μl per well of single biotinylated peptides 1 to 4, Mix A consisting of peptides 1 to 4, single biotinylated peptides 1b to 4b, and Mix D consisting of peptides 1b to 4b at 10 μg/m1 PBS each (thus, the final concentration of each peptide in both mixes was 2.5 μg/m1) at 4° C. On day 2, peptide solutions were removed and MaxiSorp® plates were blocked with 300 μl per well of Pierce protein-free (TBS) blocking buffer (Thermo Fisher Scientific, USA) at room temperature for 1.5 hours. […] Using an infinite M1000 PRO (Tecan Group, Switzerland) microplate reader, the fluorescence of each well was collected at an excitation wavelength of 435 nm and an emission wavelength of 555 nm.

[1] = tested on: LPS-induced release of endogenous TNFα from human THP-1 macrophage cells; experiment: ELISA-based TNFα release assay with purified antibody (Example 11); format: cell-based; details: antibody at 10 μg/ml final; LPS 50 ng/ml, 2 hours
Procedure: In the following study, ELISA-based TNFα release assays were performed to verify the inhibitory effects of the purified antibody 4H8-E3 of the invention on LPS-induced release of endogenous TNFα from human THP-1 macrophage cells.
In brief, on day 1, Nunc black MaxiSorp® 96-well plates (Thermo Fisher Scientific, USA) were coated overnight with 100 μl per well of mouse anti-human TNFα capture antibody (provided as part of the DuoSet ELISA kit) at 4 μg/ml TBS at 4° C. On day 2, the capture antibody solution was removed and MaxiSorp® plates were blocked with 300 μl per well of TBS, 1% BSA at room temperature for 3 hours. […] Using an infinite M1000 PRO (Tecan Group, Switzerland) microplate reader, the fluorescence of each well was collected at an excitation wavelength of 435 nm and an emission wavelength of 555 nm.

B1: 4H8-E3: Mouse IgM monoclonal antibody against the human iRhom2 juxtamembrane domain adjacent to TMD1; HC VD SEQ ID NO 33, LC VD SEQ ID NO 40 (antibody, V domains shown)
VH: EVQLQQSGPELVKPGASVKISCKASGYTFTDYYMNWVKQSHGKSLEWIGDINPNNGGTSYNQKFKGKATLTVDKSSNTAYMEFRSLTSEDSAVYYCARRGYYGVDYWGQGTTLTVSS
VL: NIVMTQSPKSMSMSVGERVTLNCKASENVGTYVSWYQQKPEQSPKLLIFGASNRYTGVPDRFIGSGFATDFTLTISSVQAEDLADYHCGQSYSYPYTFGGGTKLEIK
modifications: IgM constant regions; antibody sequence
binding to Mix D or individually coated peptides 1b, 2b, 3b and 4b (homologous sequences of human iRhom1) (human iRhom1): does not bind at all
inhibition of LPS-induced release of TNFα from THP-1 cells [1]: 62.6%
